Substitutions are numbered along the chain they refer to. Names and notes keep the numbering of the source.
T1: Acetyl-Asp-Glu-Val-Asp-pNA
T1 chain: DEVD

T2: Acetyl-Tyr-Val-Ala-Asp-pNA
T2 chain: YVAD

B1: D381E N-His ICE (D381E-modified human interleukin-1β converting enzyme, p20/p10, with N-terminal polyhistidine tag) (protein)
chain 1: HHHHHHNPAMPTSSGSEGNVKLCSLEEAQRIWKQKSAEIYPIMDKSSRTRLALIICNEEFDSIPRRTGAEVDITGMTMLLQNLGYSVDVKKNLTASDMTTELEAFAHRPEHKTSDSTFLVFMSHGIREGICGKKHSEQVPDILQLNAIFNMLNTKNCPSLKDKPKVIIIQACRGDSPGVVWFKD
chain 2: AIKKAHIEKDFIAFCSSTPDNVSWRHPTMGSVFIGRLIEHMQEYACSCDVEEIFRKVRFSFEQPEGRAQMPTTERVTLTRCFYLFPGH
B2: WT N-His ICE (wild-type human interleukin-1β converting enzyme, p20/p10, with N-terminal polyhistidine tag) (protein)
chain 1: B1 chain 1
chain 2: B1 chain 2 with E65D

What was measured:
[1] = target: T1, Acetyl-Asp-Glu-Val-Asp-pNA
[2] = target: T2, Acetyl-Tyr-Val-Ala-Asp-pNA

Protein | Km values [1] [µM] | Vmax values (M^-1 s^-1) [1] | Km values [2] [µM] | Vmax values (M^-1 s^-1) [2]
B1 | 44 | 0.08 | 43 | 0.19
B2 | 25 | 0.02 | 26 | 0.04

— patent US20020164762
